Tests used:
[1] = target: HIT receptor with the D111K mutation in the TCR beta constant region (human); assay: anti-TCR bead negative selection of T cells, cell count and flow cytometry (FIG. 7)
[2] = target: NY-ESO TCR with the D111K modification in the TRBC constant region (human); assay: anti-TCR negative selection of T cells, flow cytometry
[3] = target: unmodified NY-ESO TCR (wild-type TCR beta constant domain) (human); assay: flow cytometry of CD8+ T cells, FITC-BW242/412 against PE NY-ESO dextramer (FIG. 9)
[4] = target: NY-ESO TCR with the D111K modification in the TRBC constant region (human); assay: as above

% recovery of HIT+ cells after BW242/412 negative selection (cells not bound by the antibody) [1]: 57.7% | % recovery post purification (BW242/412 negative selection) [2]: 80% | % of the NY-ESO dextramer-positive population not stained by the anti-TCR antibody [3]: 0% | % of the NY-ESO dextramer-positive population not stained by the anti-TCR antibody [4]: 60%
Substance: BW242/412 anti-TCR antibody
